Source: patent US20250325556A1, “COMPOSITIONS FOR LOCAL BONE FORMATION” (OssiFi Therapeutics LLC, priority 2021, published 2025)

B1: sclerostin: ectopic sclerostin protein added to cells; inhibits mineralization in MC3T3 osteoblast cells (protein, UniProt Q9BQB4 24-213, looked up)
Sclerostin: QGWQAFKNDATEIIPELGEYPEPPPELENNKTMNRAENGGRPPHHPFETKDVSEYSCRELHFTRYVTDGPCRSAKPVTELVCSGQCGPARLLPNAIGRGKWWRPSGPDFRCIPDRYRAQRVQLLCPGGEAPRARKVRLVASCKCKRLTRFHNQSELKDFGTEAARPQKGRKPRPRARSAKANQAELENAY

Tested on: MC3T3-E1 (mouse calvarial) osteoblast cells
Assay: Mineralization assay: rescue of the inhibition of mineralization by sclerostin (ARS mineralization)
Format: cell-based
Settings: for ARS mineralization relative to wildtype mineralization: additive alone, no O20221-1, compared with cells with no additives
Description: Mineralization (crystalline calcium phosphate formation) represents an in vitro model of bone formation. Using an assay in which the amount of mineralization is quantified by measuring total calcium after solubilization of deposited crystalline calcium phosphate, sclerostin was previously shown to inhibit mineralization in MC3T3-E1 (mouse calvarial) osteoblast cells. Li et al., J Bone Miner Res 24:578-588 (2008). Following the protocol described in Li et al., Compositions prepared in accordance with Example 1 or mixtures of the described composition components were assayed for their ability to rescue the inhibition of mineralization by sclerostin in MC3T3 osteoblast cells. This assay was used in the examples listed below.

Molecule	ARS mineralization, restoration of normal (wildtype) mineral (in presence of sclerostin, compared with wildtype mineralization (cells with no additives))	ARS mineralization relative to wildtype mineralization	ARS mineralization relative to wildtype mineralization (listed as Sclerostin)
COc1ccc2c3ccnc(C(F)(F)F)c3n(CCN3CCOCC3)c2n1 [O20221-1, 4-(2-(2-methoxy-8-(trifluoromethyl)-9H-pyrrolo[2,3-b:5,4-c′]dipyridin-9-yl)ethyl)morpholine]	restores normal mineral	–	–
B1	–	inhibits normal mineralization	inhibits wildtype mineralization
